Measured values: patent US20200199204A1

How the values were obtained:
Test in all cases: cell-based or functional assay
[1] = molecular target: HIV-1 Env of ZM233.6 (HIV-1)
[2] = molecular target: HIV-1 Env of CAP256.PI (HIV-1)
[3] = molecular target: HIV-1 Env of Q259.d2.17 (HIV-1)
[4] = molecular target: HIV-1 Env of Q23.17 (HIV-1)
[5] = molecular target: HIV-1 Env of ZM214.15 (HIV-1)
[6] = molecular target: HIV-1 Env of 191821.E6.1 (HIV-1)
[7] = molecular target: HIV-1 Env of CAP45.G3 (HIV-1)
[8] = molecular target: HIV-1 Env of AC10.29 (HIV-1)
[9] = molecular target: HIV-1 Env of 6405.v4.c34 (HIV-1)
[10] = molecular target: HIV-1 Env of PVO.04 (HIV-1)
[11] = molecular target: HIV-1 Env of SC422.8 (HIV-1)
[12] = molecular target: HIV-1 Env of ZM135.10a (HIV-1)
[13] = molecular target: HIV-1 Env of RW020.2 (HIV-1)
[14] = molecular target: HIV-1 Env of ZM109.4 (HIV-1)
[15] = molecular target: HIV-1 Env of UG037.8 (HIV-1)
[16] = molecular target: HIV-1 Env of TRJO.58 (HIV-1)
[17] = molecular target: HIV-1 Env of CAP256.SU (HIV-1)
[18] = molecular target: HIV-1 Env of ZM249.1 (HIV-1)
[19] = molecular target: HIV-1 Env of TRO.11 (HIV-1)
[20] = molecular target: HIV-1 Env of DU172.17 (HIV-1)
[21] = molecular target: HIV-1 Env of CAAN.A2 (HIV-1)
[22] = molecular target: HIV-1 Env of 96ZM651.02 (HIV-1)
[23] = molecular target: HIV-1 Env of RHPA.7 (HIV-1)
[24] = molecular target: HIV-1 Env of DU156.12 (HIV-1)
[25] = molecular target: HIV-1 Env of WITO.33 (HIV-1)
[26] = molecular target: HIV-1 Env of 0260.v5.c36 (HIV-1)
[27] = molecular target: HIV-1 Env of CM244.ec1 (HIV-1)
[28] = molecular target: HIV-1 Env of ZM197.7 (HIV-1)
[29] = molecular target: HIV-1 Env of MB539.2B7 (HIV-1)
[30] = molecular target: HIV-1 Env of KER2018.11 (HIV-1)
[31] = molecular target: HIV-1 Env of Q461.e2 (HIV-1)
[32] = molecular target: HIV-1 Env of Q168.a2 (HIV-1)
[33] = molecular target: HIV-1 Env of BG505.w6m (HIV-1)
[34] = molecular target: HIV-1 Env of 3016.V5.c36 (HIV-1)
[35] = molecular target: HIV-1 Env of MB201 (HIV-1)
[36] = molecular target: HIV-1 Env of CAP244.D3 (HIV-1)
[37] = molecular target: HIV-1 Env of TH976.17 (HIV-1)
[38] = molecular target: HIV-1 Env of DU422.01 (HIV-1)
[39] = molecular target: HIV-1 Env of KER2008.12 (HIV-1)
[40] = molecular target: HIV-1 Env of THRO.18 (HIV-1)
[41] = molecular target: HIV-1 Env of Q769.d22 (HIV-1)
[42] = molecular target: HIV-1 Env of Q842.d12 (HIV-1)
[43] = molecular target: HIV-1 Env of C1080.c3 (HIV-1)
[44] = molecular target: HIV-1 Env of 6535.3 (HIV-1)
[45] = molecular target: HIV-1 Env of QH0692.42 (HIV-1)
[46] = molecular target: HIV-1 Env of ZM53.12 (HIV-1)
[47] = molecular target: HIV-1 Env of CNE3 (HIV-1)
[48] = molecular target: HIV-1 Env of REJO.67 (HIV-1)
[49] = molecular target: HIV-1 Env of CAP210.E8 (HIV-1)

## CAP256-VRC26.20 (antibody)
[1]
  IC50: > 50 µg/mL
[2]
  IC50: > 50 µg/mL
[3]
  IC50: > 50 µg/mL
[4]
  IC50: > 50 µg/mL
[5]
  IC50: > 50 µg/mL
[6]
  IC50: > 50 µg/mL
[7]
  IC50: > 50 µg/mL
[8]
  IC50: > 50 µg/mL
[9]
  IC50: > 50 µg/mL
[10]
  IC50: > 50 µg/mL
[11]
  IC50: > 50 µg/mL
[12]
  IC50: > 50 µg/mL
[13]
  IC50: > 50 µg/mL
[14]
  IC50: > 50 µg/mL
[15]
  IC50: > 50 µg/mL
[16]
  IC50: > 50 µg/mL
[17]
  IC50: > 50 µg/mL
[18]
  IC50: > 50 µg/mL
[19]
  IC50: > 50 µg/mL
[20]
  IC50: > 50 µg/mL
[21]
  IC50: > 50 µg/mL
[22]
  IC50: > 50 µg/mL
[23]
  IC50: > 50 µg/mL
[24]
  IC50: > 50 µg/mL
[25]
  IC50: > 50 µg/mL
[26]
  IC50: > 50 µg/mL
[27]
  IC50: > 50 µg/mL
[28]
  IC50: > 50 µg/mL
[29]
  IC50: > 50 µg/mL
[30]
  IC50: > 50 µg/mL
[31]
  IC50: > 50 µg/mL
[32]
  IC50: > 50 µg/mL
[33]
  IC50: > 50 µg/mL
[34]
  IC50: > 50 µg/mL
[35]
  IC50: > 50 µg/mL
[36]
  IC50: > 50 µg/mL
[37]
  IC50 (neutralization, TZM-bl): > 50 µg/mL
[38]
  IC50: > 50 µg/mL
[39]
  IC50: > 50 µg/mL
[40]
  IC50: > 50 µg/mL
[41]
  IC50: > 50 µg/mL
[42]
  IC50: > 50 µg/mL
[43]
  IC50: > 50 µg/mL
[44]
  IC50: > 50 µg/mL
[45]
  IC50: > 50 µg/mL
[46]
  IC50: 1.87 µg/mL
[47]
  IC50 (neutralization, TZM-bl): > 50 µg/mL
[48]
  IC50: > 50 µg/mL
[49]
  IC50: > 50 µg/mL

## CAP256-VRC26.21 (antibody)
[1]
  IC50: 26.5 µg/mL
[2]
  IC50: > 50 µg/mL
[3]
  IC50: 25.4 µg/mL
[4]
  IC50: > 50 µg/mL
[5]
  IC50: > 50 µg/mL
[6]
  IC50: > 50 µg/mL
[7]
  IC50: > 50 µg/mL
[8]
  IC50: > 50 µg/mL
[9]
  IC50: > 50 µg/mL
[10]
  IC50: > 50 µg/mL
[11]
  IC50: > 50 µg/mL
[12]
  IC50: > 50 µg/mL
[13]
  IC50: > 50 µg/mL
[14]
  IC50: > 50 µg/mL
[15]
  IC50: > 50 µg/mL
[16]
  IC50: > 50 µg/mL
[17]
  IC50: 0.002 µg/mL
[18]
  IC50: > 50 µg/mL
[19]
  IC50: > 50 µg/mL
[20]
  IC50: > 50 µg/mL
[21]
  IC50: > 50 µg/mL
[22]
  IC50: > 50 µg/mL
[23]
  IC50: > 50 µg/mL
[24]
  IC50: > 50 µg/mL
[25]
  IC50: > 50 µg/mL
[26]
  IC50: > 50 µg/mL
[27]
  IC50: > 50 µg/mL
[28]
  IC50: > 50 µg/mL
[29]
  IC50: > 50 µg/mL
[30]
  IC50: 0.06 µg/mL
[31]
  IC50: > 50 µg/mL
[32]
  IC50: > 50 µg/mL
[33]
  IC50: > 50 µg/mL
[34]
  IC50: > 50 µg/mL
[35]
  IC50: > 50 µg/mL
[36]
  IC50: > 50 µg/mL
[37]
  IC50 (neutralization, TZM-bl): > 50 µg/mL
[38]
  IC50: 1.1 µg/mL
[39]
  IC50: > 50 µg/mL
[40]
  IC50: > 50 µg/mL
[41]
  IC50: > 50 µg/mL
[42]
  IC50: > 50 µg/mL
[43]
  IC50: > 50 µg/mL
[44]
  IC50: > 50 µg/mL
[45]
  IC50: > 50 µg/mL
[46]
  IC50: 0.003 µg/mL
[47]
  IC50 (neutralization, TZM-bl): > 50 µg/mL
[48]
  IC50: > 50 µg/mL
[49]
  IC50: 0.005 µg/mL
